Assay results as given in the supplement of paper PMC9112550, “Optimization of the antimicrobial peptide Bac7 by deep mutational scanning” (BMC Biology, 2022).

Tested on: Escherichia coli TOP10
Assay: shrunken log2 fold change of peptide-encoding DNA abundance (4.5 h post-induction vs induction); higher = less antimicrobial activity (less host growth inhibition)
Settings: time post-induction: 4.5 h; library: site-saturation at positions 5, 18, 19, 20
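Note: peptides expressed intracellularly from a pBAD plasmid library in pooled LB shake-flask culture, induced with 0.3% L-arabinose, DNA abundance read by NGS, three biological replicates, DESeq2 with apeglm shrinkage.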

Row | Sequence | shrunken log2 fold change
1 | RRIRMRPPRLPRPRPRPIVMPRP | 0.163
2 | RRIRMRPPRLPRPRPRPIYCPRP | -0.163
3 | RRIRMRPPRLPRPRPRPKACPRP | 0.558
4 | RRIRMRPPRLPRPRPRPKAVPRP | 0.0216
5 | RRIRMRPPRLPRPRPRPKCSPRP | -0.0186
6 | RRIRMRPPRLPRPRPRPKEFPRP | 0.103
7 | RRIRMRPPRLPRPRPRPKEHPRP | 0.617
8 | RRIRMRPPRLPRPRPRPKFSPRP | 0.0925
9 | RRIRMRPPRLPRPRPRPKFWPRP | 1.87
10 | RRIRMRPPRLPRPRPRPKGTPRP | 1.69
11 | RRIRMRPPRLPRPRPRPKITPRP | 0.19
12 | RRIRMRPPRLPRPRPRPKKGPRP | 0.364
13 | RRIRMRPPRLPRPRPRPKKKPRP | 1.61
14 | RRIRMRPPRLPRPRPRPKKQPRP | 0.0673
15 | RRIRMRPPRLPRPRPRPKLLPRP | 0.0392
16 | RRIRMRPPRLPRPRPRPKLVPRP | 0.115
17 | RRIRMRPPRLPRPRPRPKMCPRP | 0.0261
18 | RRIRMRPPRLPRPRPRPKMKPRP | 1.45
19 | RRIRMRPPRLPRPRPRPKMLPRP | 0.231
20 | RRIRMRPPRLPRPRPRPKNFPRP | -0.15
21 | RRIRMRPPRLPRPRPRPKNTPRP | 0.575
22 | RRIRMRPPRLPRPRPRPKQLPRP | 0.83

Row | Sequence | shrunken log2 fold change
23 | RRIRMRPPRLPRPRPRPKRNPRP | 1.66
24 | RRIRMRPPRLPRPRPRPKSFPRP | -0.015
25 | RRIRMRPPRLPRPRPRPKSYPRP | 0.0526
26 | RRIRMRPPRLPRPRPRPKTEPRP | 0.155
27 | RRIRMRPPRLPRPRPRPKTTPRP | 1.09
28 | RRIRMRPPRLPRPRPRPKVLPRP | 0.0109
29 | RRIRMRPPRLPRPRPRPKVQPRP | 1.85
30 | RRIRMRPPRLPRPRPRPKYTPRP | 0.169
31 | RRIRMRPPRLPRPRPRPLANPRP | 0.235
32 | RRIRMRPPRLPRPRPRPLASPRP | 1.34
33 | RRIRMRPPRLPRPRPRPLCPPRP | -0.0953
34 | RRIRMRPPRLPRPRPRPLEYPRP | 0.0611
35 | RRIRMRPPRLPRPRPRPLGMPRP | -0.112
36 | RRIRMRPPRLPRPRPRPLHEPRP | 0.545
37 | RRIRMRPPRLPRPRPRPLHQPRP | 0.0887
38 | RRIRMRPPRLPRPRPRPLHVPRP | -0.21
39 | RRIRMRPPRLPRPRPRPLMCPRP | -0.249
40 | RRIRMRPPRLPRPRPRPLNPPRP | 0.0743
41 | RRIRMRPPRLPRPRPRPLPLPRP | 0.718
42 | RRIRMRPPRLPRPRPRPLPWPRP | 1.74
43 | RRIRMRPPRLPRPRPRPLQLPRP | 0.102
44 | RRIRMRPPRLPRPRPRPLQQPRP | 2.85

Row | Sequence | shrunken log2 fold change
45 | RRIRMRPPRLPRPRPRPLQVPRP | 0.21
46 | RRIRMRPPRLPRPRPRPLTLPRP | -0.1
47 | RRIRMRPPRLPRPRPRPLWLPRP | 0.563
48 | RRIRMRPPRLPRPRPRPMCAPRP | 1.57
49 | RRIRMRPPRLPRPRPRPMCWPRP | 2.09
50 | RRIRMRPPRLPRPRPRPMEAPRP | 0.0555
51 | RRIRMRPPRLPRPRPRPMENPRP | 0.76
52 | RRIRMRPPRLPRPRPRPMFLPRP | -0.273
53 | RRIRMRPPRLPRPRPRPMFWPRP | 0.0479
54 | RRIRMRPPRLPRPRPRPMGRPRP | -0.0209
55 | RRIRMRPPRLPRPRPRPMGSPRP | -0.0199
56 | RRIRMRPPRLPRPRPRPMIQPRP | 0.00725
57 | RRIRMRPPRLPRPRPRPMKLPRP | -0.13
58 | RRIRMRPPRLPRPRPRPMMKPRP | 0.0962
59 | RRIRMRPPRLPRPRPRPMPDPRP | 0.716
60 | RRIRMRPPRLPRPRPRPMPPPRP | 1.07
61 | RRIRMRPPRLPRPRPRPMREPRP | 0.279
62 | RRIRMRPPRLPRPRPRPMRGPRP | 1.53
63 | RRIRMRPPRLPRPRPRPMRLPRP | 0.416
64 | RRIRMRPPRLPRPRPRPMSHPRP | -0.121
65 | RRIRMRPPRLPRPRPRPMSKPRP | 0.0165
66 | RRIRMRPPRLPRPRPRPMTHPRP | 0.173

Row | Sequence | shrunken log2 fold change
67 | RRIRMRPPRLPRPRPRPMTWPRP | 0.0101
68 | RRIRMRPPRLPRPRPRPMWVPRP | 0.0332
69 | RRIRMRPPRLPRPRPRPNASPRP | 0.0546
70 | RRIRMRPPRLPRPRPRPNDPPRP | -0.516
71 | RRIRMRPPRLPRPRPRPNDQPRP | 0.0566
72 | RRIRMRPPRLPRPRPRPNDTPRP | 0.11
73 | RRIRMRPPRLPRPRPRPNEHPRP | 0.0235
74 | RRIRMRPPRLPRPRPRPNEWPRP | 0.23
75 | RRIRMRPPRLPRPRPRPNFKPRP | -0.0166
76 | RRIRMRPPRLPRPRPRPNFWPRP | 0.294
77 | RRIRMRPPRLPRPRPRPNHFPRP | -0.436
78 | RRIRMRPPRLPRPRPRPNISPRP | -0.29
79 | RRIRMRPPRLPRPRPRPNIYPRP | -0.124
80 | RRIRMRPPRLPRPRPRPNLQPRP | -0.0416
81 | RRIRMRPPRLPRPRPRPNLVPRP | 0.288
82 | RRIRMRPPRLPRPRPRPNNKPRP | -0.183
83 | RRIRMRPPRLPRPRPRPNNSPRP | -0.327
84 | RRIRMRPPRLPRPRPRPNQLPRP | 0.0894
85 | RRIRMRPPRLPRPRPRPNRNPRP | -0.292
86 | RRIRMRPPRLPRPRPRPNSEPRP | 0.128
87 | RRIRMRPPRLPRPRPRPNSSPRP | -0.1
88 | RRIRMRPPRLPRPRPRPNTQPRP | 0.0014

Row | Sequence | shrunken log2 fold change
89 | RRIRMRPPRLPRPRPRPNTVPRP | -0.162
90 | RRIRMRPPRLPRPRPRPNVIPRP | -0.117
91 | RRIRMRPPRLPRPRPRPNVWPRP | 0.303
92 | RRIRMRPPRLPRPRPRPNWRPRP | 0.0183
93 | RRIRMRPPRLPRPRPRPNWWPRP | -0.0136
94 | RRIRMRPPRLPRPRPRPNYWPRP | -0.0168
95 | RRIRMRPPRLPRPRPRPPDMPRP | 1.06
96 | RRIRMRPPRLPRPRPRPPDNPRP | 1.55
97 | RRIRMRPPRLPRPRPRPPDWPRP | 1.7
98 | RRIRMRPPRLPRPRPRPPECPRP | 0.369
99 | RRIRMRPPRLPRPRPRPPEHPRP | 0.353
100 | RRIRMRPPRLPRPRPRPPEMPRP | 0.329
101 | RRIRMRPPRLPRPRPRPPFVPRP | 0.267
102 | RRIRMRPPRLPRPRPRPPGMPRP | 1.08
103 | RRIRMRPPRLPRPRPRPPGRPRP | 0.849
104 | RRIRMRPPRLPRPRPRPPIHPRP | 0.166
105 | RRIRMRPPRLPRPRPRPPIKPRP | 0.288
106 | RRIRMRPPRLPRPRPRPPITPRP | -0.109
107 | RRIRMRPPRLPRPRPRPPKAPRP | 1.02
108 | RRIRMRPPRLPRPRPRPPKMPRP | 0.477
109 | RRIRMRPPRLPRPRPRPPKWPRP | 0.315
